Experimental findings from patent US20260042850A1 (LOCKBODY THERAPEUTICS, published 2026) are described below.

The labels stand for the following.
B1: MH7 (antibody, human IgG4, V domains shown)
VH: QVQLVQSGAEVKKPGASVKVSCKASGYTFTSYTMHWVRQAPGQGLEWMGIINPSGGSTSYAQKFQGRVTMTRDTSTSTVYMELSSLRSEDTAVYYCARQEITTEFDYWGQGTLVTVSS
VL: EIVLTQSPGTLSLSPGERATLSCRASQSVSSYANSYLHWYQQKPGQAPRLLIYRGSTRESGIPDRFSGSGSGTDFTLTISRLEPEDFAVYYCQQSKSEPLTFGGGTKVEIK
B2: 08G07 (antibody, human IgG4, V domains shown)
VH: B1 VH with I50W, S57L, T58A, S59N, Q99S, E104D
VL: B1 VL with S30D
B3: MH7-3 (antibody, human IgG4, V domains shown)
VH: B1 VH
VL: B1 VL with N34Q, S60T, S97E, E98S
B4: MH4 (antibody, IgG4, V domains shown)
VH: B1 VH with I50W
VL: B1 VL
B5: MH10 (antibody, IgG4, V domains shown)
VH: B1 VH with T33A, I50W
VL: B1 VL
B6: 04F09 (antibody, IgG4, V domains shown)
VH: B1 VH with T28I, T33S, I50W, G55N, S57L, T58A, S59N, Y107I
VL: B1 VL with S30E, N34Q, E98D
B7: 09E04 (antibody, IgG4, V domains shown)
VH: B1 VH with T28I, I50W, S54N
VL: B1 VL with S30E, S95Y, K96G

Numbering of substitutions follows the chain as printed. Where only a bound is given, the exact number is not on record here.

In general, EC50 refers to the concentration that produces a half-maximal response. A word on the Kd: it is a measure of binding affinity in units of concentration. For orientation: koff means the first-order rate constant of dissociation. A word on the kon: it is a measure of how fast the partners come together.

T1 sequence (P01308 25-54, chain 1 of 2): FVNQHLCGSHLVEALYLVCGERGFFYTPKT
T1 sequence (P01308 90-110, chain 2 of 2): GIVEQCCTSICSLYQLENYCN
T4 sequence (A0M8R7 25-1381 S170N/I621T limits assumed): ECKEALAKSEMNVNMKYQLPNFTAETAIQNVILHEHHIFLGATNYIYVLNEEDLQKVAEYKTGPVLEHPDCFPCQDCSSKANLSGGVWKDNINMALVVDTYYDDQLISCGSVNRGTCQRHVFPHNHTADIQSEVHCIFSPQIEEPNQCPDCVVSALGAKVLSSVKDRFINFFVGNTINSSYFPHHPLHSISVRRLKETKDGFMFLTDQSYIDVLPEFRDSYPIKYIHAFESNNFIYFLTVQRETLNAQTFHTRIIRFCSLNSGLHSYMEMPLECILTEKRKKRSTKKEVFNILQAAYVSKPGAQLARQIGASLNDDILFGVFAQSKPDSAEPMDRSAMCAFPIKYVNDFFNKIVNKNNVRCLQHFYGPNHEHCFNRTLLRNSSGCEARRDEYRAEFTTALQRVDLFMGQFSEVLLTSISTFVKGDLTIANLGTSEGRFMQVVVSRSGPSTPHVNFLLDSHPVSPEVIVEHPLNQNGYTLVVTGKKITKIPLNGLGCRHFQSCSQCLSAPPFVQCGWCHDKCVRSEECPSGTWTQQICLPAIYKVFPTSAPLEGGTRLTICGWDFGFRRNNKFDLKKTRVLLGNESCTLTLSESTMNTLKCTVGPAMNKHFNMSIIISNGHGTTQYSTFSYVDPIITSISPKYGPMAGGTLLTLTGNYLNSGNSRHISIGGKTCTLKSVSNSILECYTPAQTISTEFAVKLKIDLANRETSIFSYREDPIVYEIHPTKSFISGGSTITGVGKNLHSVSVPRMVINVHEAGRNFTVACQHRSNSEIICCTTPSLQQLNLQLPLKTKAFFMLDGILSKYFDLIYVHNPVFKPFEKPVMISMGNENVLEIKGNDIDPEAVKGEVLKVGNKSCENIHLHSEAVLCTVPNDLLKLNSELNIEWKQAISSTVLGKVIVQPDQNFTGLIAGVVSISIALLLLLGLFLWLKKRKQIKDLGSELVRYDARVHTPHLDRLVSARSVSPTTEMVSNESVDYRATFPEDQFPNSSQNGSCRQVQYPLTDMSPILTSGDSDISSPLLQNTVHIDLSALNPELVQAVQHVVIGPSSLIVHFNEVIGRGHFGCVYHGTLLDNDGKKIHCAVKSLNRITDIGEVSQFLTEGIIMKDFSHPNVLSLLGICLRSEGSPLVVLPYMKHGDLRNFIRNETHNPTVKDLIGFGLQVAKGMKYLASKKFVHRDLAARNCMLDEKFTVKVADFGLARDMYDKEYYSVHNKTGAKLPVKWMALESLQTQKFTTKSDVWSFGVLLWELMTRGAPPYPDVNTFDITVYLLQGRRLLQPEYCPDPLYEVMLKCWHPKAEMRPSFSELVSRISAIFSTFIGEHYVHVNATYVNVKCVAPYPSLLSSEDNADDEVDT
T2 sequence (P08581 25-932): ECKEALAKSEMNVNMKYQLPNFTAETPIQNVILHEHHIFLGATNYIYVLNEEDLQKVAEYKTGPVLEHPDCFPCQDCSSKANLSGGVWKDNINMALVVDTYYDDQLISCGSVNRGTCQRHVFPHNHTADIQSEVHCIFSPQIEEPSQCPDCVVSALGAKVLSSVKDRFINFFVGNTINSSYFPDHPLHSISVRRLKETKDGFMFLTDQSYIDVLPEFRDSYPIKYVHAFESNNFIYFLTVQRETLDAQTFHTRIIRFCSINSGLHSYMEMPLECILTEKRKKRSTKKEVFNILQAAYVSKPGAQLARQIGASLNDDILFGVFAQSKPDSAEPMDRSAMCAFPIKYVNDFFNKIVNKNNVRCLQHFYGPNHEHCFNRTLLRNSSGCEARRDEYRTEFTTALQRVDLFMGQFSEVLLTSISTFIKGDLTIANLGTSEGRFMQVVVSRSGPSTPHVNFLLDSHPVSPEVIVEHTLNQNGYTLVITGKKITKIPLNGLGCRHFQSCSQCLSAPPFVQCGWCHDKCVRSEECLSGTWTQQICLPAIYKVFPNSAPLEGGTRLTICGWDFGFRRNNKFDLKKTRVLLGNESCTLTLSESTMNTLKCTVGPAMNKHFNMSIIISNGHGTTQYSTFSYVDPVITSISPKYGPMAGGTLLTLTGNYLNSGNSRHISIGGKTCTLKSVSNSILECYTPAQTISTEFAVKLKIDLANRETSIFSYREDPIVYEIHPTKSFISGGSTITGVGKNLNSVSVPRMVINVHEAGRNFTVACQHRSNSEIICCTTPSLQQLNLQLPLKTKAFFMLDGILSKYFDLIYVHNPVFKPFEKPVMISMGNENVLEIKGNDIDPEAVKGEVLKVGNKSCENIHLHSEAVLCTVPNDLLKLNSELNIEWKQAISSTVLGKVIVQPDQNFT

The first experiment has as its target T1, Insulin.
T1 construct: Coated surface of the polyreactivity (development risk) ELISA
The experiment can be described thus: polyreactivity ELISA on insulin. Set-up: scale not given here. On the technique in general: ELISA stands for enzyme-linked immunosorbent assay.
With B1, the reactivity score amounted to 1.

Turning to B2, the reactivity score was 1.

For B3, the reactivity score came out at 1.

The next experiment concerns the target T2, human C-MET His tagged, monomeric (human, UniProt P08581 25-932).
T2 construct: also called monomeric human C-MET; biotinylated human C-MET-His
The experiment can be described thus: Alphascreen epitope competition in solution: varied IgG4(S228P) against 224G11 IgG4(S228P) binding to biotinylated human C-MET, CPS (crosstalk-corrected). The procedure: FIG. 7. Epitope competition analysis of IgG4(S228P) proteins in Alphascreen. Anti-Humanized h224G11, Grafted clone (Graft) and clones 08G07, MH7, MH7-1, MH7-2, MH7-3 in human IgG4(S228P) format were titrated (in nM) in an epitope competition assay using Alphascreen technology. In this assay, library-derived and designer IgGs were analysed for their retention of the parental 224G11 epitope by competing for 224G11 IgG4(S228P) binding to human C-MET protein, in solution.
The AlphaScreen assay (Perkin Elmer) was performed in a 25 μl final volume in 384-well white microtiter plates (Greiner). The reaction buffer contained 1×PBS pH 7.3 (Oxoid, Cat. nr. BR0014G) and 0.05% (v/v) Tween® 20 (Sigma, Cat. nr. P9416). Purified IgG samples were titrated in three fold serial dilutions starting at 50 nM final concentration and incubated with biotinylated human C-MET-His (Acrobiosystems) at 1 nM final concentration for 20 minutes at room temperature. The parental IgG and the anti-human IgG4(S228P) Acceptor beads at were added and the mix was incubated for 1 hour at room temperature. Followed by addition of the Streptavidin Donor beads and incubation for 30 minutes at room temperature. The emission of light was measured in the EnVision multilabel plate reader (Perkin Elmer) and analysed using the EnVision manager software. Values were reported as Counts Per Second (CPS) and corrected for crosstalk. […]
As to B3, the “IC50 (read off the curve)” value is around 0.2 nM.

The target in a further experiment is T3, human C-MET on stably transfected CHO-K1 cells (human, UniProt P08581 25-1390).
T3 construct: also called hucMET; human C-MET+ CHO-K1 cells
T3 sequence (P08581 25-1390 limits assumed): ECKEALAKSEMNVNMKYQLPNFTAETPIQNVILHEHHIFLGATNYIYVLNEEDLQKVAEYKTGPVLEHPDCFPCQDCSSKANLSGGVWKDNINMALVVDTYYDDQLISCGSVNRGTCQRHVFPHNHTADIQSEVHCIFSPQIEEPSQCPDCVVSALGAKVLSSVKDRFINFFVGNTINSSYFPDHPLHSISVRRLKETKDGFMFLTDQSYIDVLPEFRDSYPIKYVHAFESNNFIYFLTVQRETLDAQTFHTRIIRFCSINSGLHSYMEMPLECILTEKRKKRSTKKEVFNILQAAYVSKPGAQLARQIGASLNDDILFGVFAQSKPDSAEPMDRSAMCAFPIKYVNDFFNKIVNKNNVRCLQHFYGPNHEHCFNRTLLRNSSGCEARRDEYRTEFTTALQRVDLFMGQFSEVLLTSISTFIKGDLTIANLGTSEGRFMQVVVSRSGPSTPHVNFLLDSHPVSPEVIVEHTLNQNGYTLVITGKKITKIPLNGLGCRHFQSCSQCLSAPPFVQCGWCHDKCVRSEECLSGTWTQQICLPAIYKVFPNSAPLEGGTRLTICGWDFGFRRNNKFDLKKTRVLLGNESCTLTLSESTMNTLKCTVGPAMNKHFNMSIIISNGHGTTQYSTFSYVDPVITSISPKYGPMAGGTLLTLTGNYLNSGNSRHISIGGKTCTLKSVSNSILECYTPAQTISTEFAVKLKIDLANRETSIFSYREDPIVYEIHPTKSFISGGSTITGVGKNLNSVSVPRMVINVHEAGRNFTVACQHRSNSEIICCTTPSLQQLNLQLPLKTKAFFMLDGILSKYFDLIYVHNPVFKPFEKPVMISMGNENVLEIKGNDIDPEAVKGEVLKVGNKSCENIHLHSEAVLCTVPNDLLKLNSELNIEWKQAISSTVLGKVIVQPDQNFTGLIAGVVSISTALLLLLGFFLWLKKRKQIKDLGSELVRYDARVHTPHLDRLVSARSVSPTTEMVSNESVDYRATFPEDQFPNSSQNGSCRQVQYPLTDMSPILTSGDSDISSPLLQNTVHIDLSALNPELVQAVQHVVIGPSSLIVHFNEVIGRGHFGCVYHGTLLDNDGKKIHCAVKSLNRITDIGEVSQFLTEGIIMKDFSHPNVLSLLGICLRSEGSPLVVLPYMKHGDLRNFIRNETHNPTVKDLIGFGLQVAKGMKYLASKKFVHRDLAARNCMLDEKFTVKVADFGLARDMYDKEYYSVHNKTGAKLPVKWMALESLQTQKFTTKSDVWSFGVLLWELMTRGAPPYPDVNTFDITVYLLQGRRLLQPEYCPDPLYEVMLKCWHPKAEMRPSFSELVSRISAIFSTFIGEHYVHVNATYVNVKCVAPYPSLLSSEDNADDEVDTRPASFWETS
The experiment in a line: flow cytometry, C-MET CHO-K1 cells. As to the method:
(§1) Purified IgGs were tested in FACs for binding to human and cyno C-MET expressed on CHO-K1 stable cell lines and CHO-K1 wild-type cells. The IgG samples were titrated in three-fold serial dilutions starting at 500 nM to 0.08 nM. Binding of IgGs was detected with a mouse anti-human IgG conjugated to FITC. Results were analyzed by examining the Mean Fluorescence Intensity (MFI) of 10000 cells per sample in the BL-1 channel detector of a flow cytometer (Attune™ NxT Acoustic Focusing Cytometer, Invitrogen/ThermoFisher Scientific).
(In general: Flow cytometry measures light scatter and fluorescence of single cells or particles in a stream.)
B4: the EC50 came out at 1.72 nM.

B1 registered an EC50 of 1.14 nM.

The molecule B5 showed an EC50 of 2.14 nM.

Regarding B6, the midpoint of the response, the EC50, lay at 12.4 nM.

The molecule B7 had an EC50 of 2.9 nM.

In turn, B2 came in with an EC50 of 4.19 nM.

The next experiment addresses T4, cynomolgus monkey C-MET on stably transfected CHO-K1 cells (cynomolgus monkey, UniProt A0M8R7 25-1381 (Papio anubis entry)).
T4 construct: also called cycMET; cyno C-MET+ CHO-K1 cells
The experiment in a line: flow cytometry, C-MET CHO-K1 cells. The procedure:
as §1
Take B4: the EC50 was 0.48 nM.

B1 showed an EC50 of 0.54 nM.

B5 returned an EC50 of 0.46 nM.

B6 came in with an EC50 of 0.64 nM.

Molecule B7 gave an EC50 of 1.11 nM.

For the molecule B2, the EC50 came to 0.68 nM.

A further experiment has as its target T3, human C-MET on stably transfected …. The experiment in a line: flow cytometry, C-MET CHO-K1 cells. The source holds these as a separate data set. The procedure:
as §1
(§2) Antibodies to C-MET were analysed for concentration-dependent binding at the cell surface via flow cytometry. CHO-K1 cells were stably transfected with either human or cyno C-MET full-length cDNAs. Anti-C-MET IgGs and an isotype control IgG4(S228P) were then all tested in IgG4(S228P) format, over a concentration range of 500-0.08 nM for binding to human (FIG. 5A) and cyno (FIG. 5B) CHO-K1 cells.
For B4, the “maximum MFI, fold over Isotype IgG4 background” value (“maximum MFI, fold” for short) is above 10 fold.

B1: the “maximum MFI, fold” value is above 10 fold.

As for B5, the “maximum MFI, fold” value is above 10 fold.

On to B6, for which the “maximum MFI, fold” value is above 10 fold.

Take B7: the “maximum MFI, fold” value was above 10 fold.

B2: the “maximum MFI, fold” value is above 10 fold.

With B3, the “maximum MFI, fold” value is above 10 fold.

A further experiment addresses T4, cynomolgus monkey C-MET on stably …. The experiment in a line: flow cytometry, C-MET CHO-K1 cells. The source holds these as a separate data set. As to the method: as §1, §2
On to B4, for which the “maximum MFI, fold” value was above 10 fold.

As for B1, the “maximum MFI, fold” value is above 10 fold.

With B5, the “maximum MFI, fold” value is above 10 fold.

In the case of B6, the “maximum MFI, fold” value was above 10 fold.

In the case of B7, the “maximum MFI, fold” value is above 10 fold.

For the molecule B2, the “maximum MFI, fold” value is above 10 fold.

In the case of B3, the “maximum MFI, fold” value was above 10 fold.

In a further experiment the target is T5, cynomolgus monkey C-MET His tag, monomeric (cynomolgus monkey, UniProt A0M8R7 25-932 (Papio anubis entry)).
T5 construct: also called monomeric cyno C-MET; cyCMET
T5 sequence (A0M8R7 25-932 S170N/I621T): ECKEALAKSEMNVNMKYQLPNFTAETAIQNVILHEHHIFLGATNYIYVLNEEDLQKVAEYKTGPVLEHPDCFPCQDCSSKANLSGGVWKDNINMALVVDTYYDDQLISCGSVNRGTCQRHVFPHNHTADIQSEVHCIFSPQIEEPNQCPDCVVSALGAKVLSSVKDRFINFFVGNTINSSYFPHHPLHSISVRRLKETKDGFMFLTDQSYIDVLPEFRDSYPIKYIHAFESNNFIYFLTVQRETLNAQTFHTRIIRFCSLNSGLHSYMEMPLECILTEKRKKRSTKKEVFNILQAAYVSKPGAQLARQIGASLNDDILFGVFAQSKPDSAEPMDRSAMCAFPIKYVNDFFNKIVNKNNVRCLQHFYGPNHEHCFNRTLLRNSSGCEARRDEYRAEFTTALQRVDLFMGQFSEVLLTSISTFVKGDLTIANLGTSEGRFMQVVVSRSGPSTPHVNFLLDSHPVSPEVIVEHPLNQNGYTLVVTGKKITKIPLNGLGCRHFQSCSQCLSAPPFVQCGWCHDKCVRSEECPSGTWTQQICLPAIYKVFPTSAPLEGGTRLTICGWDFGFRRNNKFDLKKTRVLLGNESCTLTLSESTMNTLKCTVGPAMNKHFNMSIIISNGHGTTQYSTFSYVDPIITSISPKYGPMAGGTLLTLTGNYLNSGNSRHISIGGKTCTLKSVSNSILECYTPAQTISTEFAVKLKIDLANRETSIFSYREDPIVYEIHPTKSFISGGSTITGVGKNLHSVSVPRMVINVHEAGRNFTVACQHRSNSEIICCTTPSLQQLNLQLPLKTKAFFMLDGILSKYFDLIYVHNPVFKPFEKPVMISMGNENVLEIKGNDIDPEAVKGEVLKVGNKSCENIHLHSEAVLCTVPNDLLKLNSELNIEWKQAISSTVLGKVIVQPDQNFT
The experiment in a line: SPR Biacore, monomeric cyno against monomeric human C-MET. As to the method: (§3) Affinity (KD) of purified IgGs was determined via SPR with antigen in-solution on a Biacore® 3000 (GE). A mouse anti-human antibody (CH1 specific) was immobilized on a CM5 Sensor Chip to a level of 2000 RU in acetate buffer at pH 4.5 using amine coupling following the Wizard instructions for two channels. One channel was used for background signal correction. The standard running buffer HBS-EP pH 7.4 was used. Regeneration was performed with a single injection of 10 μl of 10 mM Glycine at pH 1.5 at 20 μl/minute. IgG samples were injected for 2 minutes at 50 nM at 30 μl/min followed by and off-rate of 60 seconds. The monomeric antigen (human C-MET His tagged or cynomolgus monkey C-MET His tag) was injected in two fold serial dilutions from 100 nM down to 6 nM, for 2 minutes at 30 μl/min followed by an off-rate of 300 seconds. The obtained sensorgrams were analysed using the Biacore® 3000 evaluation (BIAevaluation) software. The KD was calculated by simultaneous fitting of the association and dissociation phases to a 1:1 Langmuir binding model.
A general note: Surface plasmon resonance follows binding to a sensor surface in real time, without labels.
Take B4: the “cyno C-MET affinity, fold of the human C-MET affinity” value (from here on “cyno C-MET affinity, fold”) was at most 2 fold.

For the molecule B1, the “cyno C-MET affinity, fold” value was at most 2 fold.

Regarding B6, the “cyno C-MET affinity, fold” value is at most 2 fold.

Regarding B7, the “cyno C-MET affinity, fold” value was at most 2 fold.

Regarding B2, the “cyno C-MET affinity, fold” value is at most 2 fold.

A further experiment concerns the target T2, human C-MET His tagged, monomeric. The experiment in a line: SPR Biacore. The procedure:
as §3
For the molecule B5, the “fold reduction in binding affinity against MH4” value was around 2 fold.

The target is the same in another experiment. The experiment can be described thus: SPR Biacore, IgG captured, monomeric C-MET-His analyte. As to the method: as §3
B4 showed a Kd of 0.28 nM, a koff of 2.5e-05 s⁻¹ and a kon of 87000 M⁻¹ s⁻¹.

For B1, the Kd was found to be 0.3 nM, the koff worked out at 2.9e-05 s⁻¹ and the kon was determined as 98000 M⁻¹ s⁻¹.

In the case of B5, the Kd was 0.63 nM, the koff came to 4.4e-05 s⁻¹ and the kon was 71000 M⁻¹ s⁻¹.

In turn, B6 showed a Kd of 0.13 nM, a koff of 1.8e-05 s⁻¹ and a kon of 140000 M⁻¹ s⁻¹.

As to B7, binding was put at a Kd of 0.18 nM, the koff came out at 1.6e-05 s⁻¹ and the kon was found to be 85000 M⁻¹ s⁻¹.

For B2, the Kd amounted to 0.12 nM, the koff came out at 7.54e-06 s⁻¹ and the kon stood at 63400 M⁻¹ s⁻¹.

B3: the Kd came out at 1.31 nM, the koff worked out at 0.000123 s⁻¹ and the kon came out at 94400 M⁻¹ s⁻¹.

The target in a further experiment is T5, cynomolgus monkey C-MET His tag, …. The experiment is described as above. As to the method: as §3
The molecule B4 displayed a Kd of 0.19 nM, a koff of 4.9e-05 s⁻¹ and a kon of 260000 M⁻¹ s⁻¹.

With B1, the Kd was determined as 0.19 nM, the dissociation rate constant (koff) turned out to be 5.2e-05 s⁻¹ and the kon came out at 270000 M⁻¹ s⁻¹.

B5 returned a Kd of 0.2 nM, a koff of 3.6e-05 s⁻¹ and a kon of 180000 M⁻¹ s⁻¹.

Regarding B6, the Kd was 0.19 nM, the koff turned out to be 5.6e-05 s⁻¹ and the kon turned out to be 290000 M⁻¹ s⁻¹.

As to B7, the Kd was determined as 0.39 nM, the koff turned out to be 6.4e-05 s⁻¹ and the kon stood at 170000 M⁻¹ s⁻¹.

For the molecule B2, the Kd was 0.24 nM, the koff turned out to be 2.4e-05 s⁻¹ and the kon is 100000 M⁻¹ s⁻¹.

In turn, B3 had a Kd of 1.03 nM, a koff of 0.000174 s⁻¹ and a kon of 168000 M⁻¹ s⁻¹.
